T1: Aim21 (Altered Inheritance of Mitochondria 21), full length, 6His-SUMO tag cleaved (budding yeast, UniProt P40563 1-679)
T1 sequence (looked up): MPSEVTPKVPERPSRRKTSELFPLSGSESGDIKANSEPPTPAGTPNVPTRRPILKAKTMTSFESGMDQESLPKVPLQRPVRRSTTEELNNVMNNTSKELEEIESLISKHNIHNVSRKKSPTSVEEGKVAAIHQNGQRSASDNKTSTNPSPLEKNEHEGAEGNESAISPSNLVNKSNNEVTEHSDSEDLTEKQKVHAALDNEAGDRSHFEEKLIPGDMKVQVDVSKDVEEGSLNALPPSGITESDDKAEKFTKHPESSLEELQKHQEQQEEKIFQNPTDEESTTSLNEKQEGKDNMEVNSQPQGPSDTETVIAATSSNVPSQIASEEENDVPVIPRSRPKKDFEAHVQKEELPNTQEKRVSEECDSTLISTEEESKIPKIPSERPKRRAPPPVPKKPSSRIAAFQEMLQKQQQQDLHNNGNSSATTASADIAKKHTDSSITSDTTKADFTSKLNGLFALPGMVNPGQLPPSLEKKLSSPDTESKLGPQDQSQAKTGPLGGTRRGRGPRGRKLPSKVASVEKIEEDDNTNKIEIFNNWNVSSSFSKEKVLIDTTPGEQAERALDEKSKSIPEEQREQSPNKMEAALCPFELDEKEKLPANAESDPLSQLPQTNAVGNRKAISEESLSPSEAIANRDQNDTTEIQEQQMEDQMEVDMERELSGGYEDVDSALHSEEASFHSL

T2: 6His-SUMO-Cap2 (budding yeast, UniProt P13517 1-287)
T2 sequence (looked up): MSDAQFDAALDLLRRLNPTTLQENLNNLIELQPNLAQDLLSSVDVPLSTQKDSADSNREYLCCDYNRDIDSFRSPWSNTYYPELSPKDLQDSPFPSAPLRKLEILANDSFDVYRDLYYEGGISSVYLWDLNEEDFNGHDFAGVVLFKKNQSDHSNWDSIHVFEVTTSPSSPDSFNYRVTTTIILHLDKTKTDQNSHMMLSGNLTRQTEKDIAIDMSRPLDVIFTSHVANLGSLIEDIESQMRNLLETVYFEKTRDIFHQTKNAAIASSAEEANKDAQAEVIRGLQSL


Legend:
[1] = target: T1, Aim21 (Altered Inheritance of …); experiment: pull-down
[2] = target: T2, 6His-SUMO-Cap2; experiment: pull-down

| Binder | binding result [1] | binding result [2] |
| --- | --- | --- |
| 6His-SUMO-Tda2 (natural protein, budding yeast, UniProt P40045 1-126, looked up) MSMQIEIKDGRSDNSPLPERKLVTLIQESYDSLKDDNEINLSTESTSNLLIKLVLEKLEKHSSLYKYIASVTTLNIEGLNEENANFSLKNDIGASWESKKDGIFNYKLEDKNNNECYLITILWLHK | binds | – |
| Cap1, 6His-SUMO tag cleaved (natural protein, budding yeast, UniProt P28495 1-268, looked up) MSSSKFEEVINKIINDSPPGELREVYDDLIKITSENSKNTILDAIENYNVQNCIPIEVNGNSVIISKYNKEGAKFFDPVNSVIFSVNHLERKGLDIEPYEFTHAKIEKGQLKELHDKLHEYLLQSFPGDVSFAVYPVPEEISKISIIIVSTKYNPNNFWNGHWRSSYIYDLETRELSGQISTQVHYYEDGNVSFQSGKDINQSNVDDVVCTIRDIETNFENDLDLSFFDLNEKQFKALRRRLPVTRSKINWGSAIGSYRLGKNAAEGK | – | binds |
